The chains are these.
B1: GFP‐tagged wild‐type RAGE (AAV‐RAGE‐Wt) [mouse] / receptor‐interacting serine/threonine protein kinase 1 (RIPK1), endogenous [mouse (endogenous in BV2 cells and in mouse hippocampus)] (parent complex)
chain 1: GQNITARIGEPLVLSCKGAPKKPPQQLEWKLNTGRTEAWKVLSPQGGPWDSVARILPNGSLLLPATGIVDEGTFRCRATNRRGKEVKSNYRVRVYQIPGKPEIVDPASELTASVPNKVGTCVSEGSYPAGTLSWHLDGKLLIPDGKETLVKEETRRHPETGLFTLRSELTVIPTQGGTHPTFSCSFSLGLPRRRPLNTAPIQLRVREPGPPEGIQLLVEPEGGIVAPGGTVTLTCAISAQPPPQVHWIKDGAPLPLAPSPVLLLPEVGHEDEGTYSCVATHPSHGPQESPPVSIRVTETGDEGPAEGSVGESGLGTLALALGILGGLGVVALLVGAILWRKRQPRREERKAPESQEDEEERAELNQSEEAEMPENGAGGP
chain 2: MQPDMSLDNIKMASSDLLEKTDLDSGGFGKVSLCYHRSHGFVILKKVYTGPNRAEYNEVLLEEGKMMHRLRHSRVVKLLGIIIEEGNYSLVMEYMEKGNLMHVLKTQIDVPLSLKGRIIVEAIEGMCYLHDKGVIHKDLKPENILVDRDFHIKIADLGVASFKTWSKLTKEKDNKQKEVSSTTKKNNGGTLYYMAPEHLNDINAKPTEKSDVYSFGIVLWAIFAKKEPYENVICTEQFVICIKSGNRPNVEEILEYCPREIISLMERCWQAIPEDRPTFLGIEEEFRPFYLSHFEEYVEEDVASLKKEYPDQSPVLQRMFSLQHDCVPLPPSRSNSEQPGSLHSSQGLQMGPVEESWFSSSPEYPQDENDRSVQAKLQEEASYHAFGIFAEKQTKPQPRQNEAYNREEERKRRVSHDPFAQQRARENIKSAGARGHSDPSTTSRGIAVQQLSWPATQTVWNNGLYNQHGFGTTGTGVWYPPNLSQMYSTYKTPVPETNIPGSTPTMPYFSGPVADDLIKYTIFNSSGIQIGNHNYMDVGLNSQPPNNTCKEESTSRHQAIFDNTTSLTDEHLNPIRENLGRQWKNCARKLGFTESQIDEIDHDYERDGLKEKVYQMLQKWLMREGTKGATVGKLAQALHQCCRIDLLNHLIRASQS

In one assay the parent is B1. Briefly: co-immunoprecipitation (IP: RIPK1, IB: RAGE), optical density of blot; hippocampus of db/db + RAGE-KD mice injected with AAV-RAGE-Wt or AAV-RAGE-Mut; n = 4; mean ± S.D; parent: 1.9; read off a plot.
For chain 1 GQNITARIGEPLVLSCKGAPKKPPQQLEWKLNTGRTEAWKVLSPQGGPWDSVARILPNGSLLLPATGIVDEGTFRCRATNRRGKEVKSNYRVRVYQIPGKPEIVDPASELTASVPNKVGTCVSEGSYPAGTLSWHLDGKLLIPDGKETLVKEETRRHPETGLFTLRSELTVIPTQGGTHPTFSCSFSLGLPRRRPLNTAPIQLRVREPGPPEGIQLLVEPEGGIVAPGGTVTLTCAISAQPPPQVHWIKDGAPLPLAPSPVLLLPEVGHEDEGTYSCVATHPSHGPQESPPVSIRVTETGDEGPAEGSVGESGLGTLALALGILGGLGVVALLVGAILWAAAAAAREERKAPESQEDEEERAELNQSEEAEMPENGAGGP [chain 1 R340A, chain 1 K341A, chain 1 R342A, chain 1 Q343A, chain 1 P344A, chain 1 R345A], the response was ~1 fold change to the db/db + RAGE-KD group.

The variants in another assay derive from B1. Briefly: co-immunoprecipitation (IP: RAGE, IB: RIPK1), optical density of blot; hippocampus of db/db + RAGE-KD mice injected with AAV-RAGE-Wt or AAV-RAGE-Mut; n = 4; mean ± S.D; parent: 2.7; read off a plot.
On to chain 1 GQNITARIGEPLVLSCKGAPKKPPQQLEWKLNTGRTEAWKVLSPQGGPWDSVARILPNGSLLLPATGIVDEGTFRCRATNRRGKEVKSNYRVRVYQIPGKPEIVDPASELTASVPNKVGTCVSEGSYPAGTLSWHLDGKLLIPDGKETLVKEETRRHPETGLFTLRSELTVIPTQGGTHPTFSCSFSLGLPRRRPLNTAPIQLRVREPGPPEGIQLLVEPEGGIVAPGGTVTLTCAISAQPPPQVHWIKDGAPLPLAPSPVLLLPEVGHEDEGTYSCVATHPSHGPQESPPVSIRVTETGDEGPAEGSVGESGLGTLALALGILGGLGVVALLVGAILWAAAAAAREERKAPESQEDEEERAELNQSEEAEMPENGAGGP [chain 1 R340A, chain 1 K341A, chain 1 R342A, chain 1 Q343A, chain 1 P344A, chain 1 R345A], for which the response was ~0.95 fold change to the db/db + RAGE-KD group.

For the origin of these results see publication PMC10916433 (2023).
